1 molecule from publication doi:10.1101/2020.09.10.292318 (bioRxiv, 2020) can be followed below.

For one assay, the target named is SARS-CoV N protein (SARS-CoV (strain ; reference …, UniProt P59595). As to the kind of experiment: SPR.
Assay [1] concerns the target SARS-CoV-2 nucleocapsid (N) protein, N-FL (SARS-CoV-2 (reference sequence; isolate …, UniProt P0DTC9). As to the kind of experiment: SPR. A general note: Surface plasmon resonance follows binding to a sensor surface in real time, without labels.

B1: mAb nCoV396 (antibody, V domains shown)
VH: QVQLVESGGGVVQPGRSLRLSCAASGFTFSSYIMHWVRQAPGKGLEWVAVISYDGSNEAYADSVKGRFTISRDNSKNTLYLQMSSLRAEDTGVYYCARETGDYSSSWYDSWGRGTLVTVSS
VL: QLVLTQSPSASASLGASVKLTCTLSSGHSNYAIAWHQQQPEKGPRYLMKVNSDGSHTKGDGIPDRFSGSSSGAERYLTISSLQSEDEADYYCQTWGTGIQVFGGGTKLTVL
B1: the figures for the dissociation constant (Kd) (with SARS-CoV N protein; in assay [1]) were 7.4 nM and 1.02 nM, respectively.
